We go through 13 molecules from patent US20030068675, “Position dependent recognition of GNN nucleotide triplets by zinc fingers” (published 2003).

Test in all cases: EMSA
Common to all, as to settings: tags: MBP fusion
(A gel shift assay detects complexes by their altered migration in electrophoresis.)

The target of one data set is T1, ZFP SBS#612 (synthetic).
T1 chain: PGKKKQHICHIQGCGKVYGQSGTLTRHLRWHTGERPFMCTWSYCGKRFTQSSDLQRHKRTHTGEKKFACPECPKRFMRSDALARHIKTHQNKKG
In outline: (§1)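 Purified ZFP was titrated against labeled double-stranded target (1 nM or lower, at least 10-fold below expected Kd) carrying the natural binding site with flanks. Binding buffer was 10 mM Tris pH 7.5, 100 mM KCl, 1 mM MgCl2, 0.1 mM ZnCl2, 5 mM DTT, 10% glycerol, 0.02% BSA, with equilibration for at least 45 min. Bound and free target were separated on a 10% polyacrylamide gel.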

The next data set concerns the target ZFP SBS#611 (synthetic). In outline: as §1
The target in another data set is T2, ZFP SBS#683 (synthetic).
T2 chain: T1 chain with T23H, T25A, S52G, D53S, Q55T, R78Q, D80S, A81D, A83S
An outline of the steps:
as §1

The target in the next data set is ZFP SBS#682 (synthetic). An outline of the steps: as §1
In another data set the target is ZFP SBS#685 (synthetic). An outline of the steps:
as §1

The target of another data set is ZFP SBS#681 (synthetic). An outline of the steps: as §1
A further data set concerns the target ZFP SBS#684 (synthetic). An outline of the steps:
as §1

Another data set deals with ZFP SBS#253 (synthetic). An outline of the steps:
as §1

In another data set the target is T3, ZFP SBS#646 (synthetic).
T3 chain: T1 chain with T23N, T25A, Q50R, S52D, D53A, Q55A, S79G, A83T, R84S
An outline of the steps:
as §1

The next data set has as its target T4, ZFP SBS#647 (synthetic).
T4 chain: T1 chain with G22A, T23N, T25A, Q50R, S52D, D53A, Q55A, S79G, A83T, R84S
An outline of the steps:
as §1

A further data set concerns the target T5, ZFP SBS#403 (synthetic).
T5 chain: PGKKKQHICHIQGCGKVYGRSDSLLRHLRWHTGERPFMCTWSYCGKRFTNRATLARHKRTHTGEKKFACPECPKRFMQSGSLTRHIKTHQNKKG
An outline of the steps:
as §1

A further data set addresses T6, ZFP SBS#372 (synthetic).
T6 chain: T5 chain with N50T, R51G, A52G, T53S, G80A
An outline of the steps: as §1

A further data set deals with T7, ZFP SBS#371 (synthetic).
T7 chain: T5 chain with S23A, L25T
In outline:
as §1

The target in the next data set is T8, ZFP SBS#569 (synthetic).
T8 chain: T5 chain with N50T, R51G, A52G, T53S, S79R, G80S, S81A
In outline: as §1

For another data set, the target named is T9, ZFP SBS#370 (synthetic).
T9 chain: T5 chain with S23A, L25T, G80A
In outline:
as §1

For another data set, the target named is T10, ZFP SBS#401 (synthetic).
T10 chain: T5 chain with S23A, L25T, N50T, R51G, A52G, T53S, G80A
An outline of the steps: as §1

A further data set has as its target T11, ZFP SBS#373 (synthetic).
T11 chain: T5 chain with G80A
In outline: as §1

In the next data set the target is T12, ZFP SBS#369 (synthetic).
T12 chain: T5 chain with S23A, L25T, N50T, R51G, A52G, T53S
In outline:
as §1

The target in a further data set is T13, ZFP SBS#421 (synthetic).
T13 chain: T5 chain with R20D, N50T, R51G, A52G, T53S
An outline of the steps: as §1

The next data set concerns the target T14, ZFP SBS#422 (synthetic).
T14 chain: T5 chain with N50T, R51G, A52G, T53S, A55T
An outline of the steps: as §1

Another data set addresses T15, ZFP SBS#628 (synthetic).
T15 chain: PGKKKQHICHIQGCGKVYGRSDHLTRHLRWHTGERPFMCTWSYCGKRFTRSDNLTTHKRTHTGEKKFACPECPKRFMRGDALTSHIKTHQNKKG
An outline of the steps:
as §1

The target of the next data set is T16, ZFP SBS#629 (synthetic).
T16 chain: T15 chain with D22S
In outline:
as §1

Another data set deals with ZFP SBS#652 (synthetic). An outline of the steps: as §1
Another data set addresses T17, ZFP SBS#653 (synthetic, UniProt P08047).
T17 chain: T15 chain with R20T, S21T, D22S, H23D, T55A, T56R, G79S, A81N, S84T
In outline:
as §1

The target of the next data set is ZFP SBS#651 (synthetic). In outline:
as §1

The target of the next data set is T18, ZFP SBS#618 (synthetic).
T18 chain: T15 chain with T25S, N53H, T56R, G79K, A81N, L82M, S84Q
An outline of the steps: as §1

In the next data set the target is T19, ZFP SBS#617 (synthetic).
T19 chain: T15 chain with T25S, N53H, T56R, G79K, A81N, L82M, S84A
An outline of the steps:
as §1

A further data set deals with ZFP SBS#620 (synthetic). In outline:
as §1

The target in a further data set is T20, ZFP SBS#621 (synthetic).
T20 chain: T15 chain with T25S, N53H, T56R, G79L, A81N, L82R, S84Q
An outline of the steps:
as §1

The target in another data set is T21, ZFP SBS#619 (synthetic).
T21 chain: T15 chain with T25S, N53H, T56R, G79K, A81N, L82M, S84N
An outline of the steps: as §1

The target of the next data set is ZFP SBS#616 (synthetic). An outline of the steps:
as §1

A further data set concerns the target ZFP SBS#630 (synthetic). In outline:
as §1

A further data set has as its target T22, ZFP SBS#624 (synthetic).
T22 chain: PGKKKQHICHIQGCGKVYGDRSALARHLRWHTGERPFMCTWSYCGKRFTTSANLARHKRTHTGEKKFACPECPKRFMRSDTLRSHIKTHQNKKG
In outline: as §1

For a further data set, the target named is ZFP SBS#613 (synthetic). In outline:
as §1

For the next data set, the target named is T23, ZFP SBS#608 (synthetic).
T23 chain: T1 chain with Q20G, G22W, T23H, A81S, A83T, R84K
An outline of the steps:
as §1

The target in a further data set is ZFP SBS#614 (synthetic). An outline of the steps:
as §1

Changes are numbered by the printed parent chain.

Chain of ZFP SBS#613 (synthetic) (chain, as listed by the source): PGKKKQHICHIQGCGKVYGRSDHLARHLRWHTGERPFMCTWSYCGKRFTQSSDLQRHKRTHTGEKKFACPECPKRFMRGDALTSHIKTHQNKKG
Chain of ZFP SBS#652 (synthetic) (chain, as listed by the source): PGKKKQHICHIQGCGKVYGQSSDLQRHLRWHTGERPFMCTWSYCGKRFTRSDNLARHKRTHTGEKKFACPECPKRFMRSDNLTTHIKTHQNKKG
Chain of ZFP SBS#620 (synthetic) (chain, as listed by the source): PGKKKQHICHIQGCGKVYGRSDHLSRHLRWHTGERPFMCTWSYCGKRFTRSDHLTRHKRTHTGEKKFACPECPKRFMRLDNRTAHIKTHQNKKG
Chain of ZFP SBS#685 (synthetic) (chain, as listed by the source): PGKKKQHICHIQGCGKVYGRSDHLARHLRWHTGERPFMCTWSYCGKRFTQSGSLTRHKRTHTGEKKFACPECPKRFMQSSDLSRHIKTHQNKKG
Chain of ZFP SBS#651 (synthetic) (chain, as listed by the source): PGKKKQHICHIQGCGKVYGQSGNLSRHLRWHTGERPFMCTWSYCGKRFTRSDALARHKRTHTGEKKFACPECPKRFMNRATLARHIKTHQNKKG
Chain of ZFP SBS#684 (synthetic) (chain, as listed by the source): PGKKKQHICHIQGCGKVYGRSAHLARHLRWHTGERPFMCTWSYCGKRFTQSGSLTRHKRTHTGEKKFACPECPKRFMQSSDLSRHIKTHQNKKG
Chain of ZFP SBS#614 (synthetic) (chain, as listed by the source): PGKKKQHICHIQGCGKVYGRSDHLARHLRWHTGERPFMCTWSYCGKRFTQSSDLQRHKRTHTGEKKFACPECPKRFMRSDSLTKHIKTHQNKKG
Chain of ZFP SBS#681 (synthetic) (chain, as listed by the source): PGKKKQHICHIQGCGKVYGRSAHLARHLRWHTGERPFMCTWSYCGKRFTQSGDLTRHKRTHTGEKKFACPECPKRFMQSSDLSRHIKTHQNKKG

B1: GTGGCTGCAG (dsDNA)
DNA 1: GTGGCTGCAG
DNA 2: CTGCAGCCAC
Broadly, the Kd is the constant that tells how readily two partners part at equilibrium. A higher Kd goes with a looser complex. For B1, the figures for the Kd with ZFP SBS#612 and with ZFP SBS#611 were 0.38 nM and 11.5 nM, respectively.

B2: GCTGCAGGAG (dsDNA)
DNA 1: GCTGCAGGAG
DNA 2: CTCCTGCAGC
Consider B2, for which the Kd with ZFP SBS#683 was determined as 500 nM; with ZFP SBS#682, 90 nM; with ZFP SBS#685 it was 150 nM; in the data set with ZFP SBS#681, 3000 nM; in the data set with ZFP SBS#684 it was 850 nM.

B3: GGATGGGGG (dsDNA)
DNA 1: GGATGGGGG
DNA 2: CCCCCATCC
In the data set with ZFP SBS#253, B3 registered an equilibrium dissociation constant (Kd) of 0.75 nM.

B4: TTGGTGGAAG (dsDNA)
DNA 1: TTGGTGGAAG
DNA 2: CTTCCACCAA
Take B4: the Kd came to 35 nM with ZFP SBS#646 and 40 nM with ZFP SBS#647.

B5: GTAGTTGTG (dsDNA)
DNA 1: GTAGTTGTG
DNA 2: CACAACTAC
For B5, the Kd in the data set with ZFP SBS#403 amounted to 750 nM; in the data set with ZFP SBS#372 it was 112 nM; with ZFP SBS#371, 175 nM; in the data set with ZFP SBS#569, 52 nM; with ZFP SBS#370 it was 300 nM; in the data set with ZFP SBS#401, 80 nM. The Kd in the data set with ZFP SBS#373 amounted to 320 nM; with ZFP SBS#369, 95 nM; in the data set with ZFP SBS#421, 500 nM; with ZFP SBS#422, 200 nM.

B6: TTGTAGGGGA (dsDNA)
DNA 1: TTGTAGGGGA
DNA 2: TCCCCTACAA
Regarding B6, the Kd amounted to 130 nM with ZFP SBS#628 and 150 nM in the data set with ZFP SBS#629.

B7: TAGGAGGCTG (dsDNA)
DNA 1: TAGGAGGCTG
DNA 2: CAGCCTCCTA
For B7, the values for the Kd in the data set with ZFP SBS#652 and with ZFP SBS#653 were 1.5 nM and 5.5 nM, respectively.

B8: GTTGTGGAAT (dsDNA)
DNA 1: GTTGTGGAAT
DNA 2: ATTCCACAAC
In the case of B8, in the data set with ZFP SBS#651, binding was characterised by a dissociation constant (Kd) of 67.5 nM.

B9: AAGGGGGGG (dsDNA)
DNA 1: AAGGGGGGG
DNA 2: CCCCCCCTT
For the molecule B9, the Kd in the data set with ZFP SBS#618 was determined as 0.55 nM; with ZFP SBS#617 it was 1 nM; with ZFP SBS#620 it was 0.54 nM; in the data set with ZFP SBS#621 it was 0.75 nM; in the data set with ZFP SBS#619, 1.34 nM.

B10: GAGGAGGATG (dsDNA)
DNA 1: GAGGAGGATG
DNA 2: CATCCTCCTC
For the molecule B10, the dissociation constant (Kd) with ZFP SBS#616 was found to be 0.08 nM.

B11: CGGGGAGAGT (dsDNA)
DNA 1: CGGGGAGAGT
DNA 2: ACTCTCCCCG
B11: the Kd in the data set with ZFP SBS#630 was found to be 37.5 nM.

B12: ACGGATGTCT (dsDNA)
DNA 1: ACGGATGTCT
DNA 2: AGACATCCGT
In the data set with ZFP SBS#624, B12 displayed a Kd of 7 nM. In other words, the single-digit nanomolar range.

B13: TTGGCTGGGC (dsDNA)
DNA 1: TTGGCTGGGC
DNA 2: GCCCAGCCAA
Consider B13, for which the equilibrium dissociation constant (Kd) in the data set with ZFP SBS#613 was found to be 1.45 nM; with ZFP SBS#608, 8 nM; in the data set with ZFP SBS#614 it was 2 nM.
